In the assay the target is mCherry-tagged mutant Htt exon 1 (HttQ91). The assay can be described thus: FRET or BRET.

This passage reports mean FRET efficiency results from PMC4515032.

For “YFP-tagged wild-type Htt exon 1 (HttQ25) (domain or fragment)”, the mean FRET efficiency is 16.3%.
